Patent US20080044413A1

Molecular target: human EphA2 (human) (UniProt P29317)
Assay: cell-based or functional assay

EC50 of redirected lysis, 51Cr release, A549 [mg/L]	EC50 of redirected lysis, 51Cr release, A549, second experiment [mg/L]	EC50 of redirected lysis, 51Cr release, MDA MB231 [mg/L]	EC50 of redirected lysis, 51Cr release, MDA MB231, second experiment [mg/L]	EC50 of redirected lysis, 51Cr release, A549, NK-depleted PBMC, E:T 10:1, 18 h [mg/L]	EC50 of redirected lysis, 51Cr release, MDA MB231, NK-depleted PBMC, E:T 10:1, 18 h [mg/L]	Binder
0.184	0.163	0.0559	0.0721	–	–	EphA2-BiTE EA2 (VH/VL) × deimmunized anti-CD3 (VH/VL) (bispecific antibody, part only; not given: anti-CD3 scFv, part only) chain, part: DVKLVESGGGLVKPGGSLKLSCAASGFTFSSYTMSWVRQTPEKRLEWVATISSGGTYTYYPDSVKGRFTISRDNAKNTLYLQMSSLKSEDTAMYYCTREAIFTYWGQGTLVTVSAGGGGSGGGGSGGGGSDIKMTQSPSSMYASLGERVTITCKASQDINNYLSWFQQKPGKSPKTLIYRANRLVDGVPSRFSGSGSGQDYSLTISSLEYEDMGIYYCLKYDEFPYTFGGGTKLEIKGGGGSHHHHHH
–	–	–	0.086	0.17	0.0538	EphA2-BiTE EA2 (VL/VH) × deimmunized anti-CD3 (VH/VL) (bispecific antibody, part only; not given: anti-CD3 scFv, part only) chain, part: DIKMTQSPSSMYASLGERVTITCKASQDINNYLSWFQQKPGKSPKTLIYRANRLVDGVPSRFSGSGSGQDYSLTISSLEYEDMGIYYCLKYDEFPYTFGGGTKLEIKGGGGSGGGGSGGGGSDVKLVESGGGLVKPGGSLKLSCAASGFTFSSYTMSWVRQTPEKRLEWVATISSGGTYTYYPDSVKGRFTISRDNAKNTLYLQMSSLKSEDTAMYYCTREAIFTYWGQGTLVTVSAGGGGSHHHHHH
